Columns and labels:
[1] = target: His249 (UniProt position 249, PGVGTHVADCI); test: NMR; conditions: 25 °C; 50 mM NaCl; 20 mM sodium phosphate (starting pH 6.8; pH adjusted with HCl or NaOH); 0.1 mM 13C-labelled hOGG1(K249H); no DNA is mentioned in the sample (apparently free enzyme)
[2] = target: Asp268 (UniProt position 268, QAVPVDVHMWH); test: kinetics; conditions: 15 °C; 100 mM NaCl; 50 mM citric acid-Na2HPO4; Single-turnover conditions: 10 µM hOGG1(K249H) with 5.0 µM oxoG-containing DNA duplex F-oG23/C23 (substrate-bound enzyme)

Substance: 8-oxoguanine DNA glycosylase 1 (hOGG1), K249H mutant (Homo sapiens; K249H)
- pKa [1]: 5.54 ± 0.05
- pKa [2]: 4.5 ± 0.39
